doi:10.1101/2024.12.02.626350 (bioRxiv, 2024)

T1: nicotinic acetylcholine receptor (nAChR) δ subunit, muscle-type, Torpedo (Tetronarce californica, UniProt P02718 22-522)
T1 sequence: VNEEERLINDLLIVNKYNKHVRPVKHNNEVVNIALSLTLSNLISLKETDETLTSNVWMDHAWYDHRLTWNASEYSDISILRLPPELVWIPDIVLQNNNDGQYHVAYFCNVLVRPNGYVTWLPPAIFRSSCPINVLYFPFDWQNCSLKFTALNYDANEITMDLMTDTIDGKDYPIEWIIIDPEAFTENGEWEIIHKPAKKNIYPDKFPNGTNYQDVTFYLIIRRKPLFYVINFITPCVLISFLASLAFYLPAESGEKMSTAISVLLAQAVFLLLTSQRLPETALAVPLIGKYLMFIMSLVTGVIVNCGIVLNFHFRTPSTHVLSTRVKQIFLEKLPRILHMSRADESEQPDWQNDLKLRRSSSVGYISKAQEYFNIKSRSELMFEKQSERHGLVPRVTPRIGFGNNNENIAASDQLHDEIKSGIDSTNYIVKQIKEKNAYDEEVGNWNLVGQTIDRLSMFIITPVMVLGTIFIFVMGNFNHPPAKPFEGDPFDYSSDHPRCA

B1: nicotinic acetylcholine receptor (nAChR) α subunit, muscle-type, Torpedo (natural protein)
chain: SEHETRLVANLLENYNKVIRPVEHHTHFVDITVGLQLIQLISVDEVNQIVETNVRLRQQWIDVRLRWNPADYGGIKKIRLPSDDVWLPDLVLYNNADGDFAIVHMTKLLLDYTGKIMWTPPAIFKSYCEIIVTHFPFDQQNCTMKLGIWTYDGTKVSISPESDRPDLSTFMESGEWVMKDYRGWKHWVYYTCCPDTPYLDITYHFIMQRIPLYFVVNVIIPCLLFSFLTGLVFYLPTDSGEKMTLSISVLLSLTVFLLVIVELIPSTSSAVPLIGKYMLFTMIFVISSIIITVVVINTHHRSPSTHTMPQWVRKIFIDTIPNVMFFSTMKRASKEKQENKIFADDIDISDISGKQVTGEVIFQTPLIKNPDVKSAIEGVKYIAEHMKSDEESSNAAEEWKYVAMVIDHILLCVFMLICIIGTVSVFAGRLIELSQEG
B2: nicotinic acetylcholine receptor (nAChR) β subunit, muscle-type, Torpedo (natural protein)
chain: SVMEDTLLSVLFETYNPKVRPAQTVGDKVTVRVGLTLTNLLILNEKIEEMTTNVFLNLAWTDYRLQWDPAAYEGIKDLRIPSSDVWQPDIVLMNNNDGSFEITLHVNVLVQHTGAVSWQPSAIYRSSCTIKVMYFPFDWQNCTMVFKSYTYDTSEVTLQHALDAKGEREVKEIVINKDAFTENGQWSIEHKPSRKNWRSDDPSYEDVTFYLIIQRKPLFYIVYTIIPCILISILAILVFYLPPDAGEKMSLSISALLAVTVFLLLLADKVPETSLSVPIIIRYLMFIMILVAFSVILSVVVLNLHHRSPNTHTMPNWIRQIFIETLPPFLWIQRPVTTPSPDSKPTIISRANDEYFIRKPAGDFVCPVDNARVAVQPERLFSEMKWHLNGLTQPVTLPQDLKEAVEAIKYIAEQLESASEFDDLKKDWQYVAMVADRLFLYVFFVICSIGTFSIFLDASHNVPPDNPFA

Tests used:
[1] = molecular target: B2; experiment: cryo-EM structure
[2] = molecular target: T1, nicotinic acetylcholine receptor …; experiment: cryo-EM structure

Binder | binding result [1] | binding result [2]
B1 | binds | 
B2 |  | binds
